Results taken from PMC5027281 (Nature Communications, 2016).

B1: 3I14-mHgL IgG1 (mature heavy chain, germline light chain) (antibody, V domains shown)
VH: QVQLLESGGGVVQPGRSLRLSCAASGFTFSNYGMHWVRQAPGKGLEWVAIISFDGSKKYYANSVKGRSTISRDNSKNTLSLQMNSLGPEDTALYYCAKLPSPYYFDSRFVWVAASAFHFWGQGILVTVSS
VL: not shown
B2: 3I14-gHmL IgG1 (germline heavy chain, mature light chain) (antibody, V domains shown)
VH: QVQLVESGGGVVQPGRSLRLSCAASGFTFSSYGMHWVRQAPGKGLEWVAVISYDGSNKYYADSVKGRFTISRDNSKNTLYLQMNSLRAEDTAVYYCAKLPSPYYYDSRFVWVAASYFDYWGQGTLVTVSS
VL: NFMLTQPPSASGTPGQRVTISCSGSSSNIGGNTVHWFQQLPGTAPKLLIYTNSLRPSGVPDRFSGSKSGTSASLAISGLQSEDEADYYCAAWDDSLNGQVFGGGTKLTVL
B3: 39.29 scFvFc (scFv, V domains shown)
VH: VQLVESGGGVVQPGKSPRLSCAASGPTFSSYAVHWVRQAPGKGLEWVTLISYDGANQYYADSVKGRFTISRDNSKNTVYLQMNSLRPEDTAVYYCAVPGPVFGIFPPWSYFDNWGQGILVTVSS
VL: IVLTQSPATLSVSPGERATLSCRASQVISHNLAWYQQKPGQAPRLLIYGASTRASGIPARFSGSGSGTDYTLTITSLQPEDFAVYYCQHYSNWPPRLTFGGGTKVEIK
B4: F10 scFvFc (scFv, V domains shown)
VH: QVQLVQSGAEVKKPGSSVKVSCTSSEVTFSSFAISWVRQAPGQGLEWLGGISPMFGTPNYAQKFQGRVTITADQSTRTAYMDLRSLRSEDTAVYYCARSPSYICSGGTCVFDHWGQGTLVTVSS
VL: QPGLTQPPSVSKGLRQTATLTCTGNSNNVGNQGAAWLQQHQGHPPKLLSYRNNDRPSGISERFSASRSGNTASLTITGLQPEDEADYYCSTWDSSLSAVVFGGGTKLTVL

Columns and labels:
Conditions in all cases: both partners purified
[1] = biological target: Recombinant full-length HA of A/California/04/09 (H1-CA09) (influenza A virus A/California/04/09, UniProt C3W5S1); assay: BLI
[2] = biological target: T1, Recombinant full-length HA of A/Vietnam/1203/04 (H5-VN04) (Influenza A virus A/Vietnam/1203/2004 …, UniProt Q5EP31); assay: BLI
[3] = biological target: T1, Recombinant full-length HA of …; assay: ELISA

Row | Binder | Kd [1] [nM] | koff [1] [s⁻¹] | kon [1] [M⁻¹ s⁻¹] | Kd [2] [nM] | koff [2] [s⁻¹] | kon [2] [M⁻¹ s⁻¹] | binding result [3]
1 | B1 | < 0.001 | < 1e-07 | 138000 |  |  |  | 
2 | B2 | < 0.001 | < 1e-07 | 155000 | 1.95 | 0.000844 | 434000 | 
3 | B3 |  |  |  |  |  |  | binds
4 | B4 |  |  |  |  |  |  | binds
